{"source": "paper PMC11633381", "about": "“Acarbose impairs gut Bacteroides growth by targeting intracellular glucosidases” (mBio, 2024)", "proteins": {"B1": {"name": "SusA, periplasmic GH13 neopullulanase/alpha-amylase of the Bacteroides thetaiotaomicron Sus (enzyme, UniProt Q8A1G0 23-617, looked up)", "chain": "TSTIKKVAPTFWWAGMKNPELQILLYGDRISSADVSLSADNITLQEVVKQENPNYLVLYLDLSKAAPQNFDIILKQGKKQTKIPYELKQRRPNASAVEGFDSSDVLYLIMPDRFANGNPSNDIIPGMLEGNVDRNEPFARHGGDLKGIENHLDYIADLGVTSIWLNPIQENDMKEGSYHGYAITDYYQVDRRFGSNEEFRKLTQEANAKGLKVVMDMIFNHCGSDNYLFKDMPSKDWFNFEGNYVQTSFKTATQMDPYASDYEKKIAIDGWFTLTMPDFNQRNRHVATYLIQSSIWWIEYAGINGIRQDTHPYADFDMMARWCKAVNEEYPKFNIVGETWLGNNVLISYWQKDSRLAYPKNSNLPTVMDFPLMEEMNKAFDEETTEWNGGLFRLYEYLSQDIVYSHPMSLLTFLDNHDTSRFYRSEADTKNLDRYKQALTFLLTTRGIPQIYYGTEILMAADKANGDGLLRCDFPGGWPNDTKNCFDAANRTPQQNEAFSFMQKLLQWRKGNEVIAKGQLKHFAPNKGVYVYERKYGDKSVVVFLNGNDREQTIDLVPYQEILPASSAFDLLTEKKVELRNELTLPSREIYLLSF", "notes": "SusA, Bacteroides thetaiotaomicron VPI-5482, locus tag bt_3704 (NCBI AAO78809.1, 617 amino acids); cloned starting with T23, after the SPI signal peptide; also called bt_3704"}}, "biological_target": "the molecule itself", "assay": "SEC; 0.5 mL of 10.6 mg/mL BoSusA or 8.2 mg/mL SusA on HiPrep 16/60 Sephacryl S-200 HR, 20 mM HEPES, 100 mM NaCl, pH 7.0, 0.5 mL/min; compared with BioRad gel filtration standards", "data": [{"protein": "B1", "values": [{"measurement": "stoichiometry N", "result": 2}]}]}
